Reference: US8299032B2, “Self-assembling peptide and gel produced from the same” (Menicon Co., Ltd., priority 2005, dated 2012)

Legend:
Format in all cases: physicochemical
[1] = Confirmation of beta-sheet structure formation by circular dichroism measurement; conditions: 3×10^−3 M peptide in 0.1 M Tris-HCl (pH 7.5)
Protocol: The formation of each of the beta (β)-sheet structures of Peptide Nos. 1 to 9 and 12 synthesized in Production Examples 1 and 2 mentioned above was confirmed in accordance with circular dichroism measurement method. Concretely, each of the peptides was dissolved in 0.1 M Tris-HCl (pH 7.5) to prepare a 3×10^−3 M peptide solution. The resulting peptide solution was filled into a quartz cell having an optical path length of 0.5 mm (manufactured by JASCO, trade name: 110J cylindrical cell, volume: 0.04 mL), and the quartz cell was set in trade name J-820K Spectropolarimeter (manufactured by JASCO), and the molar ellipticities at 195 to 260 nm for the peptide solutions were determined in accordance with the circular dichroism measurement method.

[2] = Gel formation, test tube placed up-side-down; design: key to Gel Formation: Excellent: those in which the contents did not drop off were evaluated as the gel formation being “excellent”; Poor: those in which the contents dropped off were evaluated as being “poor.”; conditions: 37° C. for 24 hours; for Gel Formation: peptide 0.5% by weight; for gel formation in neutral aqueous solution (summary of Table 11): neutral aqueous solutions, 0.5% by weight
Protocol: Peptide Nos. 1, 2, 4, 5, 6, 10 and 11 synthesized in Production Examples 1 and 2 were dissolved in each of aqueous solutions listed in Table 11. A 1.5 mL test tube was charged with 1 mL of the resulting peptide-containing aqueous solution. Next, the test tube was allowed to stand at 37° C. for 24 hours.

[3] = Visible light transmittance of peptide gel (380 to 780 nm); conditions: for decreasing ratio of visible light transmittance: after 2 months at room temperature versus before storage; for visible light transmittance (average) after standing: gel allowed to stand at room temperature for 2 months; for Visible Light Transmittance (average, 380 to 780 nm): gel of 0.5% by weight peptide in 0.1 M Tris-HCl (pH 7.5), optical path length 10 mm; for long-term stability of gel (no white turbidity): room temperature, 2 months
Description: In a case where the gel of the present invention is used, for example, as a scaffold for a three-dimensional culture of the cells, it is desired that the used concentration of the self-assembling peptide of the present invention upon gel formation in a medium for cell culture is preferably 0.3% by weight or more, and more preferably 0.5% by weight or more, from the viewpoint of easiness in gel formation, and that the used concentration of the peptide is preferably 5% by weight or less, and more preferably 2% by weight or less, from the viewpoint of easy miscibility with the cells. In addition, in such a case, it is preferable that the gel is transparent, from the viewpoint of easiness in cell observation with a fluorescent microscope or the like. For example, in a gel containing 0.5% by weight of a self-assembling peptide, it is desired that the visible light transmittance which is determined in terms of absorbance at 380 to 780 nm in a cell having an optical path of 10 mm is at least 50%/cm, and it is desired that the visible light transmittance is preferably 70%/cm or more, and more preferably 90% 1 cm or more. Further, it is desired that the visible light transmittance of the gel after allowing it to stand at room temperature for a long period of time, for example, 2 months, is preferably 50%/cm or more, more preferably 70%/cm or more, and even more preferably 90%/cm or more, from the viewpoint of long-term stability of the gel, and that the decreasing ratio (%) of the visible light transmittance (100−(visible light transmittance after storage/visible light transmittance before storage×100)) is preferably 30% or less, more preferably 20% or less, and even more preferably 10% or less. The transparency of the gel can be determined with UV/VIS measurement apparatus as described in Examples set forth below.
Peptide Nos. 1 to 9 synthesized in Production Examples 1 and 2 were dissolved in 0.1 M Tris-HCl (pH 7.5), to prepare a gel composed of a 0.5% by weight peptide solution. The visible light transmittance of the prepared gel within the range of from 380 to 780 nm was determined using a cell having an optical path length of 10 mm and trade name V-550 UV/VIS Spectrometer (manufactured by JASCO).
Therefore, it could be seen that each of Peptide Nos. 1 to 9 mentioned above formed a transparent gel. In addition, of the above gels, the gel comprising each of Peptide Nos. 1, 4, 6, or 7 was allowed to stand at room temperature for 2 months, and the visible light transmittance was determined in the same manner as above. As a result, an average thereof was respectively 88, 87, 91, or 93%/cm, and the decreasing ratio was respectively 9.3, 5.4, 6.2, or 4.1%. In other words, the gel after 2 months passed from the preparation also maintained high visible light transmittance.

[4] = Dynamic viscoelasticity of peptide aqueous solution (storage modulus G′, loss modulus G″); conditions: 0.5 wt %, acidic aqueous solution (pH 3.5)
Description: In addition, the term “gel” as used herein refers to a viscoelastic substance having both viscous property and elastic property. Concretely, the gel refers to a substance satisfying the formula G′>G″, in a case where the gel is subjected to dynamic viscoelasticity measurement to determine a storage elastic modulus G′ and a loss elastic modulus G″.
The dynamic viscoelasticity can be determined with a dynamic viscoelasticity measurement apparatus as described in Examples set forth below. Concretely, the dynamic viscoelasticity can be determined by placing a sample on an iron plate, compressing the sample with an iron cone, and monitoring a stress applied to a motor rotating the iron cone when the cone is rotated.
The storage elastic modulus G′ and the loss elastic modulus G″ of a 0.5% by weight peptide (Peptide Nos. 1 to 10 mentioned above)-containing aqueous solution were determined with an instrument under the trade name of AR1000 (manufactured by TA Instruments Japan). […] Next, the 0.5% by weight peptide-containing aqueous solution was compressed, and a stress applied to a motor was monitored when the iron cone was rotated, while varying the frequency of the cone within the range of 0.1 to 10 rad/sec.

Row | Sequence | Gel Formation ([2]; PBS pH 7.4) | gel formation in neutral aqueous solution (summary of Table 11) [2] | decreasing ratio of visible light transmittance [3] [%] | visible light transmittance (average) after standing [3] [%/cm] | Visible Light Transmittance (average, 380 to 780 nm) [3] [%] | long-term stability of gel (no white turbidity) [3] | Gel Formation ([2]; Tris-HCl 0.1 M pH 7.5) | also measured
1 | HKHQHDHKHQHDHKHQHD (Synthetic peptide which is not a peptide of the invention) [Peptide No. 12, peptide not having a nonpolar amino acid residue, not a peptide of the present invention] |  |  |  |  |  |  |  | formation of beta (β)-sheet structure in aqueous solution [1]: did not form a beta(β)-sheet structure
2 | RFDFRFDFRFDFRFDF (Synthetic peptide which is not a peptide of the invention) [compound 11, comparative peptide, which is not self-assembling peptide of the present invention; charge at pH 7.0 is 0, reference compound] | Poor | did not form into gel in a neutral aqueous solution |  |  |  |  |  | 
3 | RASARADARASA (Synthetic self-assembling peptide of the invention) [Peptide No. 7, self-assembling peptide of the present invention] |  |  | 4.1 | 93 | 97 | stable for a long period of time without becoming white turbid |  | 
4 | RANARADARANARADA (Synthetic self-assembling peptide of the invention) [Peptide No. 2, self-assembling peptide of the present invention] |  | formed into gel in various neutral aqueous solutions |  |  | 77 |  | Excellent | 
5 | SAEAKAEASAEAKAEA (Synthetic self-assembling peptide of the invention) [Peptide No. 9, self-assembling peptide of the present invention] |  |  |  |  | 93 |  |  | 
6 | RASARADARADARASA (Synthetic self-assembling peptide of the invention) [Peptide No. 4, self-assembling peptide of the present invention] | Excellent | formed into gel in various neutral aqueous solutions | 5.4 | 87 | 92 | stable for a long period of time without becoming white turbid | Excellent | Gel Formation ([2]; Tris-HCl 0.05 M pH 7.5): Excellent; Gel Formation ([2]; Tris-HCl 0.2 M pH 7.5): Excellent; Gel Formation ([2]; Tris-HCl 0.4 M pH 7.5): Excellent; Gel Formation ([2]; Tris-HCl 0.6 M pH 7.5): Excellent; Gel Formation ([2]; Tris-HCl 0.8 M pH 7.5): Excellent; Gel Formation ([2]; Tris-HCl 1 M pH 7.5): Excellent
7 | KASAKAEAKASAKAEA (Synthetic self-assembling peptide of the invention) [Peptide No. 8, self-assembling peptide of the present invention] |  |  |  |  | 94 |  |  | 
8 | RASARADARASARADA (Synthetic self-assembling peptide of the invention) [Peptide No. 1, self-assembling peptide of the present invention] | Excellent | formed into gel in various neutral aqueous solutions | 9.3 | 88 | 97 | stable for a long period of time without becoming white turbid | Excellent | Gel Formation ([2]; D-MEM/F12(1:1) Medium pH 7.5): Excellent; Gel Formation ([2]; Tris-HCl 0.05 M pH 7.5): Excellent; Gel Formation ([2]; Tris-HCl 0.2 M pH 7.5): Excellent; Gel Formation ([2]; Tris-HCl 0.4 M pH 7.5): Excellent; Gel Formation ([2]; Tris-HCl 0.6 M pH 7.5): Excellent; Gel Formation ([2]; Tris-HCl 0.8 M pH 7.5): Excellent; Gel Formation ([2]; Tris-HCl 1 M pH 7.5): Excellent
9 | RADARADARADARADA [Peptide No. 10, reference compound] | Poor | did not form into gel in a neutral aqueous solution |  |  |  |  |  | gel formation by dynamic viscoelasticity [4]: formed the gel in an acidic aqueous solution
10 | RAAARADARAAARADA (Synthetic self-assembling peptide of the invention) [Peptide No. 3, self-assembling peptide of the present invention] |  |  |  |  | 91 |  |  | 
11 | RASARASARASARADA (Synthetic self-assembling peptide of the invention) [Peptide No. 6, self-assembling peptide of the present invention] |  | formed into gel in various neutral aqueous solutions | 6.2 | 91 | 97 | stable for a long period of time without becoming white turbid | Excellent | 
12 | RADARASARASARADA (Synthetic self-assembling peptide of the invention) [Peptide No. 5, self-assembling peptide of the present invention] |  | formed into gel in various neutral aqueous solutions |  |  | 78 |  | Excellent | 
